According to the supplement of paper PMC10724198:
± gives the standard deviation of the averaged measurements.

How the values were obtained:
[1] = tested on: Saccharomyces cerevisiae; experiment: protein stability index of tFT-peptide fusion (C-terminal peptide) (PSI (0-1 scale)); higher = more stable (slower turnover)
Procedure: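 MPS profiling in S. cerevisiae of the tFT-X12 degron library: putative degron peptides plus stable controls, 12 aa, fused to the C-terminus of a sfGFP-mCherry timer. Cells are FACS-sorted into 8 mCherry/sfGFP bins and deep-sequenced. PSI runs from 0 (unstable) to 1 (stable). Backgrounds are wild type, das1Δ and doa10Δ at 30 °C, and wild type, das1Δ, cdc34-1 and cdc53-1 at 37 °C; 2-3 technical replicates each.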

[2] = tested on: Saccharomyces cerevisiae; experiment: as above; settings: genetic background: wild type; temperature: 30 C
[3] = genetic background: cdc34-1, temperature: 37 C
[4] = genetic background: cdc53-1, temperature: 37 C
[5] = genetic background: das1 deletion, temperature: 30 C
[6] = genetic background: das1 deletion, temperature: 37 C
[7] = genetic background: doa10 deletion, temperature: 30 C
[8] = genetic background: wild type, temperature: 30 C
[9] = genetic background: wild type, temperature: 37 C
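Further: PSI is a weighted mean of sequencing reads over stability bins, variants kept only with over 10 reads, mCherry proximal and sfGFP distal, peptide attached via GGGS linker.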

VPASWLRMLAFC gave a protein stability index [1, 3] of 0.197 ± 0.0024, a protein stability index [1, 4] of 0.578 ± 0.025 and a protein stability index [1, 5] of 0.559 ± 0.024. For the same sequence, the protein stability index [1, 6] was 0.701 ± 0.047, the protein stability index [1, 7] was 0.0659 ± 0.0043 and the protein stability index [1, 8] was 0.0647 ± 0.013. The protein stability index [1, 9] was 0.0629 ± 0.016 and the protein stability index [2] was 0.05335 ± 0.00032.
GVWLRAVRGFGV was tested, and the protein stability index [1, 3] was 0.706 ± 0.03, the protein stability index [1, 4] was 0.7586 ± 0.0013 and the protein stability index [1, 5] was 0.646 ± 0.013. For the same sequence, the protein stability index [1, 6] was 0.76107 ± 0.00069, the protein stability index [1, 7] was 0.652 ± 0.0083 and the protein stability index [1, 8] was 0.6542 ± 0.0058. The protein stability index [1, 9] was 0.7403 ± 0.0064 and the protein stability index [2] was 0.738 ± 0.04.
Sequence LISGVCLRVKVG has a protein stability index [1, 3] of 0.55 ± 0.031, a protein stability index [1, 4] of 0.597 ± 0.017 and a protein stability index [1, 5] of 0.452 ± 0.029. It also gave a protein stability index [1, 6] of 0.6276 ± 0.00027, a protein stability index [1, 7] of 0.16 ± 0.016 and a protein stability index [1, 8] of 0.193 ± 0.015. The protein stability index [1, 9] was 0.3637 ± 0.0019 and the protein stability index [2] was 0.346 ± 0.046.
LQVPTLRLFVFF showed a protein stability index [1, 3] of 0.584 ± 0.029, a protein stability index [1, 4] of 0.724 ± 0.033 and a protein stability index [1, 5] of 0.577 ± 0.02. The protein stability index [1, 6] was 0.698 ± 0.021, the protein stability index [1, 7] was 0.197 ± 0.0017 and the protein stability index [1, 8] was 0.224 ± 0.012. The protein stability index [1, 9] was 0.398 ± 0.026 and the protein stability index [2] was 0.3 ± 0.0049.
SFFWAMSLLCFV showed a protein stability index [1, 3] of 0.511 ± 0.025, a protein stability index [1, 4] of 0.559 ± 0.012 and a protein stability index [1, 5] of 0.443 ± 0.025. It also gave a protein stability index [1, 6] of 0.549 ± 0.018, a protein stability index [1, 7] of 0.402 ± 0.022 and a protein stability index [1, 8] of 0.414 ± 0.024. The protein stability index [1, 9] was 0.498 ± 0.00077 and the protein stability index [2] was 0.455 ± 0.043.
PPGLLPPCLLVV was tested, and the protein stability index [1, 3] was 0.358 ± 0.027, the protein stability index [1, 4] was 0.373 ± 0.0093 and the protein stability index [1, 5] was 0.307 ± 0.035. It also gave a protein stability index [1, 6] of 0.444 ± 0.02, a protein stability index [1, 7] of 0.2485 ± 0.00054 and a protein stability index [1, 8] of 0.301 ± 0.028. For the same sequence, the protein stability index [1, 9] was 0.395 ± 0.011 and the protein stability index [2] was 0.39 ± 0.05.
GPFGVGALVCCM was tested, and the protein stability index [1, 3] was 0.462 ± 0.016, the protein stability index [1, 4] was 0.4425 ± 0.00085 and the protein stability index [1, 5] was 0.333 ± 0.032. It also gave a protein stability index [1, 6] of 0.503 ± 0.0066, a protein stability index [1, 7] of 0.304 ± 0.01 and a protein stability index [1, 8] of 0.351 ± 0.017. It also gave a protein stability index [1, 9] of 0.4844 ± 0.00066 and a protein stability index [2] of 0.433 ± 0.0072.
GLCSGTGARWLV gave a protein stability index [1, 3] of 0.703 ± 0.0096, a protein stability index [1, 4] of 0.7667 ± 0.0022 and a protein stability index [1, 5] of 0.636 ± 0.027. The protein stability index [1, 6] was 0.749 ± 0.018, the protein stability index [1, 7] was 0.52 ± 0.013 and the protein stability index [1, 8] was 0.516 ± 0.0084. It also gave a protein stability index [1, 9] of 0.701 ± 0.016 and a protein stability index [2] of 0.559 ± 0.086.
FFIVGACAYVFA gave a protein stability index [1, 3] of 0.223 ± 0.036, a protein stability index [1, 4] of 0.30494 ± 0.00019 and a protein stability index [1, 5] of 0.228 ± 0.031. For the same sequence, the protein stability index [1, 6] was 0.385 ± 0.0094, the protein stability index [1, 7] was 0.204 ± 0.013 and the protein stability index [1, 8] was 0.231 ± 0.029. For the same sequence, the protein stability index [1, 9] was 0.37 ± 0.015 and the protein stability index [2] was 0.319 ± 0.033.
CRWHLRIVRGLM was tested, and the protein stability index [1, 3] was 0.5609 ± 0.0048, the protein stability index [1, 4] was 0.665 ± 0.00068 and the protein stability index [1, 5] was 0.593 ± 0.01. It also gave a protein stability index [1, 6] of 0.6603 ± 0.0027, a protein stability index [1, 7] of 0.29 ± 0.019 and a protein stability index [1, 8] of 0.276 ± 0.056. For the same sequence, the protein stability index [1, 9] was 0.415 ± 0.019 and the protein stability index [2] was 0.377 ± 0.0026.
For LVVFGLVLSLLL, the protein stability index [1, 3] was 0.449 ± 0.013, the protein stability index [1, 4] was 0.477 ± 0.006 and the protein stability index [1, 5] was 0.376 ± 0.022. It also gave a protein stability index [1, 6] of 0.5066 ± 0.0043, a protein stability index [1, 7] of 0.356 ± 0.008 and a protein stability index [1, 8] of 0.374 ± 0.022. It also gave a protein stability index [1, 9] of 0.495 ± 0.03 and a protein stability index [2] of 0.469 ± 0.025.
For FGVLGCAWVWVG, the protein stability index [1, 3] was 0.394 ± 0.0091, the protein stability index [1, 4] was 0.528 ± 0.032 and the protein stability index [1, 5] was 0.465 ± 0.033. For the same sequence, the protein stability index [1, 6] was 0.625 ± 0.017, the protein stability index [1, 7] was 0.0888 ± 0.019 and the protein stability index [1, 8] was 0.114 ± 0.021. The protein stability index [1, 9] was 0.103 ± 0.037 and the protein stability index [2] was 0.157 ± 0.045.
LRVLSVVRLSVW was tested, and the protein stability index [1, 3] was 0.479 ± 0.0067, the protein stability index [1, 4] was 0.545 ± 0.023 and the protein stability index [1, 5] was 0.407 ± 0.034. The protein stability index [1, 6] was 0.545 ± 0.011, the protein stability index [1, 7] was 0.382 ± 0.02 and the protein stability index [1, 8] was 0.4 ± 0.025. The protein stability index [1, 9] was 0.54567 ± 0.00028 and the protein stability index [2] was 0.468 ± 0.055.
VWFVFVCAVCVL was tested, and the protein stability index [1, 3] was 0.191 ± 0.029, the protein stability index [1, 4] was 0.298 ± 0.015 and the protein stability index [1, 5] was 0.205 ± 0.012. It also gave a protein stability index [1, 6] of 0.3464 ± 0.003, a protein stability index [1, 7] of 0.138 ± 0.033 and a protein stability index [1, 8] of 0.163 ± 0.023. The protein stability index [1, 9] was 0.271 ± 0.012 and the protein stability index [2] was 0.273 ± 0.0097.
YAFYLFSRILAA showed a protein stability index [1, 3] of 0.232 ± 0.0091, a protein stability index [1, 4] of 0.302 ± 0.075 and a protein stability index [1, 5] of 0.236 ± 0.025. It also gave a protein stability index [1, 6] of 0.3486 ± 0.0015, a protein stability index [1, 7] of 0.1792 ± 0.0014 and a protein stability index [1, 8] of 0.208 ± 0.016. It also gave a protein stability index [1, 9] of 0.285 ± 0.013 and a protein stability index [2] of 0.2795 ± 0.00053.
